Laboratory results: PMC6940745 (International Journal of Molecular Sciences, 2019)
Where a SMILES comes first, the peptide text is derived from it. [ ]: non-standard residue; d: D form. The star is where a group is joined. Gly(N(CH2)2(3-indolyl)) = O=C(O)CNCCc1c[nH]c2ccccc12; N(indol-3-ylmethyl)Gly = O=C(O)CNCc1c[nH]c2ccccc12; 2Nal = N[C@@H](Cc1ccc2ccccc2c1)C(=O)O; d2Nal = N[C@H](Cc1ccc2ccccc2c1)C(=O)O; Dab = NCC[C@H](N)C(=O)O; Bz = O=C(c1ccccc1)*; NPr2 = CCCN(CCC)*

T1: Melatonin receptor MT2R (UniProt P49286)
T1 sequence: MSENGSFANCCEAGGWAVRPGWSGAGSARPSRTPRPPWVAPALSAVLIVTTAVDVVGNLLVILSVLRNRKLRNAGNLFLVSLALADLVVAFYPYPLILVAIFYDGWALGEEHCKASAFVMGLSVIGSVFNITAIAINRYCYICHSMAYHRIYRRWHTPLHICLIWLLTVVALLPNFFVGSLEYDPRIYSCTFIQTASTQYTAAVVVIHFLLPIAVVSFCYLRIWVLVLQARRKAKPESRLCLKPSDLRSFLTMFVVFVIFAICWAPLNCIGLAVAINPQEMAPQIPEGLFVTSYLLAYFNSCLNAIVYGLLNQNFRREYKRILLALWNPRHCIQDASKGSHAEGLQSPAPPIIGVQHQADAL

B1: MC1R-agonist pentapeptide 6 (Bz-Gly-His-D-Phe-Arg-D-Phe-NH2) (peptide)
peptide: Bz-GH[dF]R[dF]-NH2
SMILES: N=C(N)NCCC[C@H](NC(=O)[C@@H](Cc1ccccc1)NC(=O)[C@H](Cc1c[nH]cn1)NC(=O)CNC(=O)c1ccccc1)C(=O)N[C@H](Cc1ccccc1)C(N)=O
B2: MC1R-agonist pentapeptide 1 (Bz-Gly-His-D-Phe-Arg-L-Trp-NH2) (peptide)
peptide: Bz-GH[dF]RW-NH2
SMILES: N=C(N)NCCC[C@H](NC(=O)[C@@H](Cc1ccccc1)NC(=O)[C@H](Cc1c[nH]cn1)NC(=O)CNC(=O)c1ccccc1)C(=O)N[C@@H](Cc1c[nH]c2ccccc12)C(N)=O
B3: MC1R-agonist pentapeptide 4 (Bz-Gly-His-D-Phe-Arg-D-Trp-N(Propyl)2) (peptide)
peptide: Bz-GH[dF]R[dW]-NPr2
SMILES: CCCN(CCC)C(=O)[C@@H](Cc1c[nH]c2ccccc12)NC(=O)[C@H](CCCNC(=N)N)NC(=O)[C@@H](Cc1ccccc1)NC(=O)[C@H](Cc1c[nH]cn1)NC(=O)CNC(=O)c1ccccc1
B4: MC1R-agonist pentapeptide 5 (Bz-Gly-His-D-Phe-Arg-L-Trp-N(Propyl)2) (peptide)
peptide: Bz-GH[dF]RW-NPr2
SMILES: CCCN(CCC)C(=O)[C@H](Cc1c[nH]c2ccccc12)NC(=O)[C@H](CCCNC(=N)N)NC(=O)[C@@H](Cc1ccccc1)NC(=O)[C@H](Cc1c[nH]cn1)NC(=O)CNC(=O)c1ccccc1

Tests used:
[1] = system: B16 murine melanoma cells; experiment: Total melanin synthesis in mouse melanoma cells; assay type: cell-based; settings: 72 h incubation
Experimental: B16 murine melanoma cells, which are highly responsive towards stimulation with alpha-melanocyte stimulating hormone (alpha-MSH), were grown in Dulbecco’s modified eagle medium (DMEM) with 1 g/L glucose supplemented with 3 g/L glucose, 2 mM L-glutamine, 50 U/mL Penicillin, 50 µg/mL Streptomycin, and 10% fetal calf serum. They were kept at 37 °C in a 5% CO2 atmosphere. Cells were grown for 24 h and then medium was replaced with medium containing the test or reference (NDP-alpha-MSH) compounds. After 72 h, total (intracellular and extracellular) melanin content was determined by absorbance spectroscopy at 405 nm. The results were quantified against a melanin standard curve.
Figure 1 Total melanin synthesis in mouse melanoma cells stimulated with MC1R-agonist peptides. MC1R-agonist peptides were incubated at various concentrations together with the near confluent mouse melanoma cell line B16F10. NDP-alpha-MSH at 100 nM was used as the reference and set to 100% melanin (red line). Error bars represent standard error of the mean of three experiments.

[2] = molecular target: T2, human recombinant MC1 receptor (Homo sapiens, UniProt Q01726); experiment: MC1R activation, cAMP HTRF assay in CHO-K1 cells; assay type: cell-based
T2 construct: host or cells: CHO-K1
Experimental: MCR-activation assays were performed by means of a cAMP HTRF (homogeneous time resolved fluorescence) assay for Gs-coupled receptors (cAMP Gs dynamic kit, Cisbio bioassays, 62AM4PEC). CHO-K1 cells expressing human recombinant MC1 receptor (EuroscreenFast, Gosselies, Belgium) (or MC2R, MC3R, MC4R, MC5R) were grown prior to the test in media without antibiotic. They were detached by gentle flushing with PBS-EDTA (5 mM EDTA), recovered by centrifugation, and resuspended in assay buffer (5 mM KCl, 1.25 mM MgSO4, 124 mM NaCl, 25 mM HEPES, 13.3 mM Glucose, 1.25 mM KH2PO4, 1.45 mM CaCl2, 0.5 g/L BSA, supplemented with 1 mM IBMX). Dose response curves were performed in parallel with the reference compounds. For agonist test (96-well), 12 µL of cells were mixed with 12 µL of the test compound diluted at increasing concentrations in assay buffer, and then incubated for 30 min at room temperature. After addition of the lysis buffer and 1 h incubation, fluorescence signal was measured, according to the manufacturer’s specifications, with the homogeneous time resolved fluorescence (HTRF) kit.

[3] = system: human abdominal skin ex vivo; experiment: Stimulation of pigmentation in human abdominal skin ex vivo (Fontana-Masson melanin quantification); assay type: cell-based; settings: 200 µM peptide, topical, six days
Experimental: Following declaration of Helsinki principles (DoH-Oct2013, World Medical Association, Ferney-Voltaire, France), human skin samples were obtained from elective plastic surgery after informed consent was obtained. For the two experiments shown in Figure 2, Figure 3 and Figure 4, we had one person with an individual topology angle (ITA°) of 18, and one person with an ITA° of 39 [69]. The skin samples were cut in pieces of 8 × 3 mm and cultured up to day 6. Skin samples were cultured in an air–liquid interface in a perforated ring of stainless steel in contact with culture medium (modified Williams’ E medium). The culture medium was renewed every three days (i.e., day 0–3). Compounds were added daily in DMSO at 4 µL volume. At day 6, the skin samples were fixed in formalin, embedded in paraplast, and cut at the microtome for histochemical staining and consequent image analysis. Six skin biopsies were used for each single treatment.
Two skin biopsies for each treatment were weighed and, in each case, reduced in the dermal portion, in order to have approximately the same weight for all of them. Samples were then washed and processed with methylthiazolyldiphenyl-tetrazolium bromide (MTT). The color intensity, that is directly proportional to skin vitality, was measured with a plate reader at a wavelength of 570 nm. For melanin quantification, skin sections were stained with a modified Fontana-Masson stain that dyes melanin argentaffin granules in black/dark grey. The amount of melanin present in each slide was evaluated by estimating grey intensity and distribution within the sections using ImageJ application (NIH-USA). Two slides of each skin sample were processed by image acquisition and related analysis (i.e., 12 images for each treatment).
Figure 2 Stimulation of pigmentation by MC1R-agonist peptides ex vivo. Melanin was quantified on skin sections using ImageJ software (NIH, USA). Human abdominal skin was topically treated with peptides at various concentrations for six days. * p < 0.05 vs vehicle by unpaired Student’s t-test. […]

[4] = system: other MCRs; parameters: method as in PMID 12591094, PMID 12576087; settings: MCRs besides MC1R; cited from earlier work
[5] = molecular target: Melanocortin-1 receptor (MC1R), human recombinant, in CHO-K1 cells (human) (UniProt Q01726)
[6] = molecular target: Melanocortin-1 receptor (MC1R), human recombinant, in CHO-K1 cells (human) (UniProt Q01726); remark: listed apart in the source
[7] = molecular target: T1, Melatonin receptor MT2R
[8] = molecular target: Melanocortin-4 receptor (MC4R), recombinant, in CHO-K1 cells (human) (UniProt P32245)
[9] = molecular target: Endothelin B-receptor (ETBR), human (human) (UniProt P24530)
[10] = molecular target: Opioid receptor OP3R (human mu opioid receptor) (human) (UniProt P35372)
[11] = molecular target: Melanocortin-2 receptor (MC2R), recombinant, in CHO-K1 cells (human) (UniProt Q01718)
[12] = molecular target: Melatonin receptor MT1R (UniProt P48039)
[13] = molecular target: Opioid receptor OP2R (human kappa opioid receptor) (human) (UniProt P41145)
[14] = molecular target: Melanin-concentrating hormone receptor MCH2R, human (human) (UniProt Q969V1)
[15] = molecular target: Melanin-concentrating hormone receptor MCH1R, human (human) (UniProt Q99705)
[16] = molecular target: Serotonin receptor 5-HT2AR, human (human) (UniProt P28223)
[17] = molecular target: Opioid receptor OP1R (human delta opioid receptor) (human) (UniProt P41143)
[18] = molecular target: Melanocortin-5 receptor (MC5R), recombinant, in CHO-K1 cells (human) (UniProt P33032)
[19] = molecular target: Melanocortin-3 receptor (MC3R), recombinant, in CHO-K1 cells (human) (UniProt P41968)
Melanocortin-3 receptor (MC3R), recombinant, in CHO-K1 cells (human), sequence (P41968 whole entry): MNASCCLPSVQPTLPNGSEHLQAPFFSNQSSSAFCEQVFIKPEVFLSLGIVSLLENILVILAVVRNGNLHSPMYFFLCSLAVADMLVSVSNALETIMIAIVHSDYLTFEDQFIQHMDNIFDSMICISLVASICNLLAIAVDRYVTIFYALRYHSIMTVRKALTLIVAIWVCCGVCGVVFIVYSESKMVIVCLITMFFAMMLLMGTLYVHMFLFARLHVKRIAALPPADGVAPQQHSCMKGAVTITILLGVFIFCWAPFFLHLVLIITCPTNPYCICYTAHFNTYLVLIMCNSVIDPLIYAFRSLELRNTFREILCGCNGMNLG

T2 sequence (Q01726 whole entry): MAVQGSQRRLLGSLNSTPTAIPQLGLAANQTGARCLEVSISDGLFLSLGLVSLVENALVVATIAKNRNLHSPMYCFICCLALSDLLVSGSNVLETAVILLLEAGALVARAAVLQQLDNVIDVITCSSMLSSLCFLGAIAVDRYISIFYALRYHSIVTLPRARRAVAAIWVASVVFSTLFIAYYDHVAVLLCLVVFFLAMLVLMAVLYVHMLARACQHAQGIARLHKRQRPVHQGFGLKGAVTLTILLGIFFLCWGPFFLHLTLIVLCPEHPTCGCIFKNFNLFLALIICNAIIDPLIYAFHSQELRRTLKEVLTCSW
Melanocortin-1 receptor (MC1R), human recombinant, in CHO-K1 cells (human), sequence (Q01726 whole entry): as above
Endothelin B-receptor (ETBR), human (human), sequence (P24530 27-442): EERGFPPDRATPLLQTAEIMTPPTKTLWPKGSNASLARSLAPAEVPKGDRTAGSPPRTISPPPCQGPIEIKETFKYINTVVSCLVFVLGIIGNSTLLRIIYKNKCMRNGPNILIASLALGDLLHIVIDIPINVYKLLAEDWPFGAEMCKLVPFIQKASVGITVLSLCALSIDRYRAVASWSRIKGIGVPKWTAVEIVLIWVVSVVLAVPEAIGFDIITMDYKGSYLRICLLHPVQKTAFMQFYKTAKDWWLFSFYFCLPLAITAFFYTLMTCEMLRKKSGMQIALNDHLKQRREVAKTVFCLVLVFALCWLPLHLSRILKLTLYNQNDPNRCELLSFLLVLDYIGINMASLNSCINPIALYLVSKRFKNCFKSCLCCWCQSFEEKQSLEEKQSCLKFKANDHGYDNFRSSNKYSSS
Melanin-concentrating hormone receptor MCH1R, human (human), sequence (Q99705 whole entry): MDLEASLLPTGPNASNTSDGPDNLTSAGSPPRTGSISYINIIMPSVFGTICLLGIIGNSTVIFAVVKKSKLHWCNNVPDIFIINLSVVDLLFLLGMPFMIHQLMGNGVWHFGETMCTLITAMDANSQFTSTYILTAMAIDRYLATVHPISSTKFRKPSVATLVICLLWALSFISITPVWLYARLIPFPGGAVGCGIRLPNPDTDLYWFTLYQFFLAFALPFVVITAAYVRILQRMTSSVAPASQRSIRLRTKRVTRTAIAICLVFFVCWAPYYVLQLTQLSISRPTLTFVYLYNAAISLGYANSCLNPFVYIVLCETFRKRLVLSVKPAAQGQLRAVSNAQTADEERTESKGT
Melanin-concentrating hormone receptor MCH2R, human (human), sequence (Q969V1 whole entry): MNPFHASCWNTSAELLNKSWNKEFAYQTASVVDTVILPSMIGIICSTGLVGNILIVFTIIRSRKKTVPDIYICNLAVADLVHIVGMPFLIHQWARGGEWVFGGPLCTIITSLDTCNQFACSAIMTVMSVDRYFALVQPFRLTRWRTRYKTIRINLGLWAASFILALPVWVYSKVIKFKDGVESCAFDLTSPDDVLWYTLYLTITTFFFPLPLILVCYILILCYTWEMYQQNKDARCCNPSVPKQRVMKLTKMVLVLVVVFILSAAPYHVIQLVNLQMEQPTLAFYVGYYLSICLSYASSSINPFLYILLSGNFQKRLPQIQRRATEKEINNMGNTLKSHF
Melanocortin-5 receptor (MC5R), recombinant, in CHO-K1 cells (human), sequence (P33032 whole entry): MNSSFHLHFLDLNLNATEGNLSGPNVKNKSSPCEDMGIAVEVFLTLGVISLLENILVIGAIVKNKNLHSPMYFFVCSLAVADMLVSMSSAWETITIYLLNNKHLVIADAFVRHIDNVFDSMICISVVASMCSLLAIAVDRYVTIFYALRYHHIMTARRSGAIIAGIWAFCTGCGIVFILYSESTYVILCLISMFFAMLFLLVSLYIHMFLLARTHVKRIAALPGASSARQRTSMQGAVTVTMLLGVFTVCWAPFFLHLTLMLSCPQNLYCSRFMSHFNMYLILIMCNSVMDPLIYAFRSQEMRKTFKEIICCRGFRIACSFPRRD
Melanocortin-4 receptor (MC4R), recombinant, in CHO-K1 cells (human), sequence (P32245 whole entry): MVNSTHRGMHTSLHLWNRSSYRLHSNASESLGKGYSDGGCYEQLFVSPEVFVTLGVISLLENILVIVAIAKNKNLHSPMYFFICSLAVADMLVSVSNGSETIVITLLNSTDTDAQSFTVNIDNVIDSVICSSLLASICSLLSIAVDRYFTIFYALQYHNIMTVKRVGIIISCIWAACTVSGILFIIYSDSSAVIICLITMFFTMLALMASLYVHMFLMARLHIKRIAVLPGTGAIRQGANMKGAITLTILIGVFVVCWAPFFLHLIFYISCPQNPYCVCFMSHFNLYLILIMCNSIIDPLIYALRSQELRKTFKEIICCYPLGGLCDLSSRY
Melanocortin-2 receptor (MC2R), recombinant, in CHO-K1 cells (human), sequence (Q01718 whole entry): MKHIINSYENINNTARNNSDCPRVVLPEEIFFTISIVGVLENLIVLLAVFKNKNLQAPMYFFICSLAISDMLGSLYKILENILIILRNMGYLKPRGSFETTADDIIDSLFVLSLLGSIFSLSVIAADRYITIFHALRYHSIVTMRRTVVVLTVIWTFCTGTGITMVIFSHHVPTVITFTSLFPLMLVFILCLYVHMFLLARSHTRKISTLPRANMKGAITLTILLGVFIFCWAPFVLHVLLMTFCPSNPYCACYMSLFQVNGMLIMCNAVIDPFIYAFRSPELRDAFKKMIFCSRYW
Melatonin receptor MT1R, sequence (P48039 whole entry): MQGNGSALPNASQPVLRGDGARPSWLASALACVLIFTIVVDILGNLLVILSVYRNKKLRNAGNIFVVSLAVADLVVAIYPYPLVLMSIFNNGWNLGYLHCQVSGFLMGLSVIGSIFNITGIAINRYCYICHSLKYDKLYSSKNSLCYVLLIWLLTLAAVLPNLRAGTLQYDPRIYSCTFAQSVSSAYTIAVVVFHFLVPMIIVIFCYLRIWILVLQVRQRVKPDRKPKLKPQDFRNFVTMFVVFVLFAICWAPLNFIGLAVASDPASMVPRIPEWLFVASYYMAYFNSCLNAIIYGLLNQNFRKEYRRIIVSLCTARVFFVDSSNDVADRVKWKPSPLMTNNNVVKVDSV

Row | Molecule | Concentration at which maximal melanin synthesis activity comparable to 100 nM NDP-alpha-MSH is reached [1] | EC50 [2] | EC50 of MC1R activation (cAMP HTRF assay, CHO-K1 cells expressing human MC1R) [5] | also measured
1 | N=C(N)NCCC[C@H](NC(=O)[C@@H](Cc1ccccc1)NC(=O)[C@H](Cc1c[nH]cn1)NC(=O)CNC(=O)c1ccccc1)C(=O)N[C@@H](Cc1c[nH]c2ccccc12)C(N)=O [Peptide 1] (Bz-GH[dF]RW-NH2) | around 12.3 nM | 0.041 nM |  | Stimulation of pigmentation compared to vehicle-treated control tissue [3]: up to 21%
2 | N=C(N)NCCC[C@H](NC(=O)[C@@H](Cc1ccccc1)NC(=O)[C@H](Cc1c[nH]cn1)NC(=O)CNC(=O)c1ccccc1)C(=O)N[C@@H](Cc1ccc2ccccc2c1)C(N)=O [Peptide 2] (Bz-GH[dF]R[2Nal]-NH2) | around 12.3 nM | 0.11 nM |  | 
3 | N=C(N)NCCC[C@H](NC(=O)[C@@H](Cc1ccccc1)NC(=O)[C@H](Cc1c[nH]cn1)NC(=O)CNC(=O)c1ccccc1)C(=O)N[C@H](Cc1ccc2ccccc2c1)C(N)=O [Peptide 3] (Bz-GH[dF]R[d2Nal]-NH2) | around 12.3 nM | 0.25 nM |  | 
4 | CCCN(CCC)C(=O)[C@H](Cc1c[nH]c2ccccc12)NC(=O)[C@H](CCCNC(=N)N)NC(=O)[C@@H](Cc1ccccc1)NC(=O)[C@H](Cc1c[nH]cn1)NC(=O)CNC(=O)c1ccccc1 [Peptide 5] (Bz-GH[dF]RW-NPr2) |  | 0.88 nM |  | 
5 | N=C(N)NCCC[C@H](NC(=O)[C@@H](Cc1ccccc1)NC(=O)[C@H](Cc1c[nH]cn1)NC(=O)CNC(=O)c1ccccc1)C(=O)N[C@H](Cc1ccccc1)C(N)=O [Peptide 6] (Bz-GH[dF]R[dF]-NH2) | > 111 nM | 1.79 nM |  | 
6 | N=C(N)NCCC[C@H](NC(=O)[C@@H](Cc1ccccc1)NC(=O)[C@H](Cc1c[nH]cn1)NC(=O)CNC(=O)c1ccccc1)C(=O)N(CCc1c[nH]c2ccccc12)CC(N)=O [Peptide 7] (Bz-GH[dF]R[Gly(N(CH2)2(3-indolyl))]-NH2) | > 111 nM |  |  | 
7 | NCC[C@H](NC(=O)[C@@H](Cc1ccccc1)NC(=O)[C@H](Cc1c[nH]cn1)NC(=O)CNC(=O)c1ccccc1)C(=O)N[C@@H](Cc1c[nH]c2ccccc12)C(N)=O [Peptide 8] (Bz-GH[dF][Dab]W-NH2) | > 111 nM | 7.51 nM |  | 
8 | Ac-Ser-Tyr-Ser-Met-Glu-His-Phe-Arg-Trp- Gly-Lys-Pro-Val-NH2 [alpha-MSH] |  |  |  | Potency among other MCRs [4]: ≤ 5 nM
9 | MC1R-agonist pentapeptide 2 (Bz-Gly-His-D-Phe-Arg-L-NaphAla-NH2) |  |  | 0.11 nM | 
10 | MC1R-agonist pentapeptide 3 (Bz-Gly-His-D-Phe-Arg-D-NaphAla-NH2) |  |  | 0.25 nM | 
11 | MC1R-agonist pentapeptide 8 (Bz-Gly-His-D-Phe-Dab-L-Trp-NH2) |  |  | 7.51 nM | 
12 | NDP-alpha-MSH [Nle^4, D-Phe^7] (peptide) |  |  |  | EC50 of MC1R activation (cAMP production, recombinant CHO-MC1R cell line; control compound) [6]: 0.071 nM
13 | B1 |  |  | 1.79 nM | 
14 | B2 |  |  | 0.041 nM | 
15 | Bz-GH[dF]R[N(indol-3-ylmethyl)Gly]-NH2 [MC1R-agonist pentapeptide 7 (Bz-Gly-His-D-Phe-Arg-[N-(CH2-3-indolyl)Gly]-NH2)] |  |  | 4.4 nM | 
16 | B3 |  |  | 0.42 nM | EC50 of receptor activation (GTPγ[35S] scintillation proximity assay on CHO-K1 membrane preparations; eight concentrations from 0.01 to 100,000 nM) [7]: > 100000 nM; EC50 of receptor activation (cAMP HTRF assay, CHO-K1 cells; eight concentrations from 0.01 to 100,000 nM) [8]: 136 nM; EC50 of receptor activation (Aequorin assay, recombinant cells; eight concentrations from 0.01 to 100,000 nM) [9]: > 100000 nM; EC50 of receptor activation (GTPγ[35S] scintillation proximity assay on CHO-K1 membrane preparations; eight concentrations from 0.01 to 100,000 nM) [10]: > 100000 nM; EC50 of receptor activation (cAMP HTRF assay, CHO-K1 cells; eight concentrations from 0.01 to 100,000 nM) [11]: > 100000 nM; EC50 of receptor activation (GTPγ[35S] scintillation proximity assay on CHO-K1 membrane preparations; eight concentrations from 0.01 to 100,000 nM) [12]: > 100000 nM; EC50 of receptor activation (GTPγ[35S] scintillation proximity assay on CHO-K1 membrane preparations; eight concentrations from 0.01 to 100,000 nM) [13]: > 100000 nM; EC50 of receptor activation (Aequorin assay, recombinant cells; eight concentrations from 0.01 to 100,000 nM) [14]: > 100000 nM; EC50 of receptor activation (Aequorin assay, recombinant cells; eight concentrations from 0.01 to 100,000 nM) [15]: > 100000 nM; EC50 of receptor activation (Aequorin assay, recombinant cells; eight concentrations from 0.01 to 100,000 nM) [16]: > 100000 nM; EC50 of receptor activation (GTPγ[35S] scintillation proximity assay on CHO-K1 membrane preparations; eight concentrations from 0.01 to 100,000 nM) [17]: > 100000 nM; EC50 of receptor activation (cAMP HTRF assay, CHO-K1 cells; eight concentrations from 0.01 to 100,000 nM) [18]: > 100000 nM; EC50 of receptor activation (cAMP HTRF assay, CHO-K1 cells; eight concentrations from 0.01 to 100,000 nM) [19]: 877 nM
17 | B4 |  |  | 0.88 nM | 
